To fix the notation:
B1: TPR 5TU (parent)
chain: GGAUCUUCUCGAUCUAACAAAAAAGACAAAUCUGCCACAAAGCUUGAGAGCAUCUUCGGAUGCAGAGGCGGCAGCCUUCGGUGGCGCGAUAGCGCCAACGUUCUCAACUAUGACACGCAAAACGCGUGCUCCGUUGAAUGGAGUUUAUCAUG

Variants at the floor of the assay were thinned out.

The variants in the series derive from B1. The series can be described thus: polymerase ribozyme fitness, log enrichment relative to wild type (log ratio); higher = more active; in vitro selection for triplet polymerase activity. In a few lines:
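Each subunit of a heterodimeric triplet polymerase ribozyme was mutagenized into a library by PCR, transcribed, and subjected to one round of in vitro selection, run in triplicate. Libraries were annealed with a biotinylated primer, the partner subunit and triplets, incubated frozen at −7 °C, and extended constructs were gel-excised, captured on streptavidin beads and recovered by RT-PCR. Input and output libraries were sequenced on Illumina, keeping genotypes with ≥10 input reads and ≥1 read per output. Fitness is log base 2 of genotype enrichment divided by wild-type enrichment, from inverse-variance-weighted replicate averages.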
Consider GGAACUUCUCGAUCUAACAAAAAAGACAAAUCUGCCACAAAGCUUGAGAGCAUCUUCGGAUGCAGAGGCGGCAGCAUUCGGUGGCGCGAUAGAGCCAACGUUCUCAACUAUGACGCGCAAAACCCGUGCUCCGUUGAAUGGAGUUUAUUAUG [U4A C76A C93A A115G G124C C149U], for which the “polymerase ribozyme fitness (log ratio)” value was not above -4.2.
To GGAACUUCUUGAUCUAACAAAACAGACAAAUCUGCCACAAAGCUUGAGAGCAUCUUUGGAUGCAGAGGCGGCAGCCUUCGAUGGCGCGAUACCGCCAACGUUCUCAACUAUGACCCGAAAAACGCGUGCUCCGUUGAAUGGAGUUUAUCAUG [U4A C10U A23C C57U G81A G92C A115C C118A] belongs not above -4.2.
For GGAACUUCUCGAUCUAACAAAAAAGACAAAUCUGCCACAAAGCUUGAGAGCAUCUUCGGAUGCAGAGGCGGCAGCCUUCGGUGUUGCGAUAGCGCCAACGUUCUCAACUAUGACACUCAAAACGCGUGCUCCGUUGAAUGGAGUCUAUCAUG [U4A G84U C85U G117U U145C], the “polymerase ribozyme fitness (log ratio)” value was -2.29.
In the case of GGAACUUCUCGAUCUAACAAAAAAGACAAAUCUGCCACAAAGCUUGAGAGCAUCUUCGGAUGCAGAGGCGGCAGCCUUCGGUGACGCGAUAGCGCCAACGGUCUCAACUAUGACACGCAAAACGCGUGCUCCGUUGAAUGGAGUUUAUCAUG [U4A G84A U101G], the “polymerase ribozyme fitness (log ratio)” value is -0.65.
To GGAACUUCUCGAUCUAACAAAAAAGACAAAUCUGCCACAAAGCUUGAGAGCGUCUUAGGAUGCAGAGGCGGCAGCCUUCGGUGGCGCGAUAGCGCCAACGUUCUCAACUAUGACACGCAAAACGCUUGCUCCGUUGAAUGGAGUUUAUCAUG [U4A A52G C57A G126U] belongs -1.17; to GGAACUUCUCGAUCUAAGUAAAAAGACAAAACUGCCACAAAGCUUGAGAGCAUCUUCGGAUGCAGAGGCGGCAGCCUUCGGUGGCGCGAUAGCGCCAACGUUCUCAACUAUGACACGCAAAACGCGUGCUCCGUCGAAUGGAGUUUAUCAUG [U4A C18G A19U U31A U135C], -4.1.
Regarding GGAACUUCUCGAUCUAACAAAAAAGACAAAUCUGCCACAAAGCUUGAGAGCAUCUUCGGAUGCAGAGGCGGCAGCCUUCGGUGGCGCGAUAGUGCCAACGUUCUCAACUAUGACACGCAAAACGCGUGCUCCGUUGAAUGGAGUUUAUCAUG [U4A C93U], the “polymerase ribozyme fitness (log ratio)” value is -1.34.
To GGAACUUCUCGAUCUAACAAAAAAGAUAAAUCUGCCAUAAAGCUUGAGAGUAUCUUCGGAUGCAGAGGCGGCAGCCUUCGGUGGCGCGAUAGCGCCAACGUUCUCGACAAUGACACGCAAAACGCGUGCUCCGUUGAAUGGAGUUUAUCAUG [U4A C27U C38U C51U A106G U109A] belongs -3.72.
To GGAACUUCUCGAUCUAACAAAAAAGACAAAUCUGCCACAAAGCUUGAGAGCAUCUUCGGAUGCAGAGGCGGCAGCCUUCGGUGACGCGAUAGCGCCAAUGUUCUCAACGAUGACACGCACAACGCGUGCUCCGUUGAAUGGAGUUUAUCAUC [U4A G84A C99U U109G A120C G152C] belongs -3.96.
To GGAACUUCUCGAUCUAACAAAAAAGACAAAUCUGCGACAAAGCUUGAGAGCAUCUUCGGAUGCAGAGGCGGCAGCCUUCGGUGGCGCGAUAGCGCCAACGUUCUCAACUAUGACACGCAAAACGCGUGCUACGUUAAAUGGAGUUUAUCAUG [U4A C36G C131A G136A] belongs not above -4.2; to GGAACUUUUCGAUCUAACAAAAAAGACACAUCUGCCACAACGCUUGAGAGCAUCUUCAGAUGCAGAGGCGGCAGACUUUGGUAGCGCGAUAGCGCCAACGUUCUCAACUAUGACACGCAAAACGCGUGCUCCGUUGAAUGGAGUUUAUCAUG [U4A C8U A29C A41C G58A C75A C79U G83A], not above -4.2.
Consider GGAACUUAUCGAUCUAACAAAAAAGACAAAUCUGCCACAAAGAUUGAGAGCAUCUUCGGAUGCUGAGGCGGCAGCCUUCGGUGGCGCGAUAGAGCCAACGUUCUCAACUAUGACACGCAAAACGCGUGCUCCGUUGAAUGGAGUUCAUCAUG [U4A C8A C43A A64U C93A U146C], for which the “polymerase ribozyme fitness (log ratio)” value was not above -4.2.
To GGAACUUCUCGAUCUAACAAAAAAGACAAAUCUGCCACAAAGCUUGAGAGCAUCUUCGGAUGCAGCGGCGGCAGCCUUCGGUGGCGCGUUAGAGCCAACGUUCUCAACUAUGACACGCAAAACGGGUGCUCCGUUGAAUGGAAUUUAUCAUG [U4A A66C A89U C93A C125G G143A] belongs not above -4.2; to GGAACUUCUCGAUCUAACAAAAAAGACAAAUCUGCCACAAAGCUUGAGAGCAUCUUCGGUUGCAGAGGCGGCAGCCUUCGGUGGCGCGAUAGCGCCCACGUUCUCAACAAUGACACGCAAAACGCGUGCUCCGUUGAAUGGAGUUUAUCAUG [U4A A60U A97C U109A], -3.
Take GGAACUUUUCGAUCUAACAAAAAAGACAAAUCUGCCACAAAGCUUCAGAGCAUCUUCGGAUGCAGAGGCGGCAGCCUUCGGUGGCGCGAUAGAGCCAACAUUCUCAACUAUGACACGUAAAACGCGUGCUCCGUUGAAUGGAGUUUAUCAUG [U4A C8U G46C C93A G100A C118U]: the “polymerase ribozyme fitness (log ratio)” value was not above -4.2.
Turning to GGAACUUCUCUAUCUAACAAAAAAGACAAAUCUGCCACAAAGCUUGAGAACAUCUUCGGAUGCAGAGGCGGCAGCUUUCGGUGUCGCGAUAGCCCCAACGUUCUCAACUAUGACACGCAAAACGCUUGCUCCGUUGAAUGGAGUUUAUCAUG [U4A G11U G50A C76U G84U G94C G126U], the “polymerase ribozyme fitness (log ratio)” value is not above -4.2.
GGAACUUCUCGAUCUAACAAAAAAUACAAAUCUGCCACAAAGCUUGAGAGCAUUUUCGGAUGCAGAGGCGGCAGCCUUCGGUGGCGCGAUAUCGCCAACGUUCUCAACUAUGACACGCAAAACACGUGCUCCGUUGAAUGGAGUUUAUCAUG [U4A G25U C54U G92U G124A]: the “polymerase ribozyme fitness (log ratio)” value was -2.53.
As for GGAACUUCUCGAUCUAACAAAAAAGACAAAUCUGCCACAAAGCUUGAGAGCAUCUUGGGAUGCAGAGGCGGCAGCCUUCGGUAGCGCGAUAGCGCCAACGUUCUCAACUAUGACACGCAAAACGCGUGCUCCGUUGAAUGGAGUUUAUCAUG [U4A C57G G83A], the “polymerase ribozyme fitness (log ratio)” value was -1.23.
To GGAACUUCUCGAUCUAACAAAAAAGACAAAUCUGACACAAAGCUUGAGAGCACCUUCGGAUGCAGAGGCGGCAGCCUUCGGUGGCGCGAUAGCGCGAACGUUCUCAACUAUGACACGCAAAUCGCGUGCUCCGUUGAAUGGAGUUUAUCAUG [U4A C35A U53C C96G A122U] belongs not above -4.2.

Values taken from the RNAGym collection of RNA variant scans (doi:10.1073/pnas.2313332121).
